Among the data in US20050152888A1 are half-life of reporter degradation in vitro with purified proteasomes and rapamycin (anti-HA Western) values, retold here.

In the test the target is Rpn10 proteasome subunit C-terminally fused with Fpr1 (strain Rpn10-FPR1) (S. cerevisiae) (UniProt P38886). The test is described as follows: cell-based or functional assay.
Sequence of Rpn10 proteasome subunit C-terminally fused with Fpr1 (strain Rpn10-FPR1) (S. cerevisiae) (P38886 other isoform, or with tags, fused parts or gaps): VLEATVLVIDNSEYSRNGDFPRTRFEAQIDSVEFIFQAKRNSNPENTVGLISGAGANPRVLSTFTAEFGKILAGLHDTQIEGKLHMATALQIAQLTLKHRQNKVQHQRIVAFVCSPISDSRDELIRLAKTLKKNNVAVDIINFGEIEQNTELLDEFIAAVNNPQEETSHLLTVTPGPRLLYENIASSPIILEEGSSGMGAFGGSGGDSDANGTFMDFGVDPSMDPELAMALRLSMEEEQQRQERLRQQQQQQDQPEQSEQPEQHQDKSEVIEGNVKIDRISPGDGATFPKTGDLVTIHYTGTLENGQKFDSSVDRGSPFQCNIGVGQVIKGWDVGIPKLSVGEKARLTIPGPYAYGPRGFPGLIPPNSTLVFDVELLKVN

With “HA epitope-tagged Tor-His3 purified from a bacterial expression system (PROTet.e133-TOR-link-HIS3HA) (from UniProt P35169 1883-2078; P06633 1-220)”, the half-life of reporter degradation in vitro with purified proteasomes and rapamycin (anti-HA Western) is 15 min.
